The labels stand for the following.
B1: CPEB3 Ribozyme (parent)
chain: GGGGGCCACAGCAGAAGCGUUCACGUCGCGGCCCCUGUCAGAUUCUGGUGAAUCUGCGAAUUCUGCUGU

The variants in this series derive from B1. Briefly: self-cleavage, relative activity (ratio to wild type); higher = more cleavage; co-transcriptional.
For C34U A52U, the self-cleavage was 0.975. The figure for C34U A52C is 0.958.

Turning to C35U C45G, the self-cleavage came out at 0.956. Consider C35A U44C, for which the self-cleavage amounted to 0.277. The figure for C34U C39A is 0.834; for C34U C39U it is 0.943. The figure for C34U C39G is 0.973; for C34U A51G it is 1.01.

Take C34U A51C: the self-cleavage was determined as 0.985. The figure for C34U A51U is 0.957; for C34U U53G it is 0.728.

Take C34U U53C: the self-cleavage came out at 0.943. The figure for C35A C39U is 0.183; for C35A C39G it is 0.3; for C35G G58U it is 0.375. Then C35G G58C, with 0.295. Take C34U A42G: the self-cleavage stood at 0.932.

C34U A42C: the self-cleavage came out at 0.843. Then C34U A42U, with 0.924; and C35G U53C, with 0.342. Then C35G U53G, with 0.214; and C34U U67G, with 0.982; and C34G U62C, with 0.316. The figure for C34G U62A is 0.453; for C34G U62G it is 0.477.

Consider C35A G58U, for which the self-cleavage was determined as 0.286. In the case of C34U U44A, the self-cleavage turned out to be 0.963. The figure for C34U U44C is 0.938. Then C34U U44G, with 0.859. Then C35U U67C, with 0.979; and C35U U67G, with 1.03.

As to C35U G41C, the self-cleavage was 0.632. Then C35U G41U, with 0.745; and C35A C66G, with 0.294; and C35A C66A, with 0.22. The figure for C35A C66U is 0.259; for U36A C45G it is 0.282; for U36A C45A it is 0.158. The figure for C34G U43G is 0.383; for C34G U43C it is 0.547; for C34U G47C it is 0.968. Regarding C34U G47U, the self-cleavage was determined as 0.995.

Take C34U G47A: the self-cleavage is 0.958. The figure for C35G U61A is 0.33; for U36A A52G it is 0.178; for U36A A52U it is 0.166. The figure for C35G G47U is 0.553; for C35G G47C it is 0.634. C34U G41A: the self-cleavage was 0.828. The figure for C35U A40G is 0.914. The figure for C34U G37C is 0.226; for C34U G37U it is 0.247; for C35G C63A it is 0.341. Then C34G U36G, with 0.263; and C34G U36C, with 0.819. For the variant C34U C35A, the self-cleavage turned out to be 0.194. For C34U C35U, the self-cleavage came to 0.736.

For C34U C35G, the self-cleavage was 0.313. Take C34U G50C: the self-cleavage was 0.999. With C34U G50A, the self-cleavage came to 1.03. The figure for C35U G68C is 0.963.

As for C35U G68U, the self-cleavage stood at 1.01.

Take C34U C54U: the self-cleavage came to 0.985. The figure for C34U C54G is 0.819. As to C34U C54A, the self-cleavage worked out at 0.809. The figure for C35U G58C is 0.878; for C35U G58A it is 0.878. For C35U G58U, the self-cleavage stood at 0.984.

For C34U U62G, the self-cleavage is 0.892.

With C34U U62A, the self-cleavage is 0.921. Then C34U U49A, with 0.996; and C34U U49C, with 0.998; and C34U U49G, with 0.985.

As to C35U A52U, the self-cleavage came to 0.973. C35U A52G: the self-cleavage was 0.974. The figure for C34U U36C is 0.922; for C34U U36G it is 0.256. Then C34G U44C, with 0.578. The figure for C34G U44G is 0.446; for C35U U43A it is 0.818. C35U U43C: the self-cleavage came to 0.866. In the case of C35G U44C, the self-cleavage was found to be 0.357. For C35G U44A, the self-cleavage amounted to 0.346. Consider C35A C54A, for which the self-cleavage stood at 0.315. Then C35A C54U, with 0.252; and C35A G37C, with 0.254.

Regarding C35A G37A, the self-cleavage is 0.221. Turning to C35A G37U, the self-cleavage came out at 0.237. Then C34U U43G, with 0.708; and C34G U46A, with 0.776. For the variant C34G U46G, the self-cleavage is 0.766.

Turning to C34U C57U, the self-cleavage turned out to be 0.385. The figure for C34U C57A is 0.315; for U36A A60G it is 0.269.

On to U36A A60U, for which the self-cleavage turned out to be 0.242.

Consider U36A A60C, for which the self-cleavage came out at 0.19. The figure for C35U G50C is 0.979; for C35U G50A it is 0.974; for C35U G65A it is 0.847. The figure for C35U G65U is 0.632. The figure for C35G G50A is 0.36; for C35G G50U it is 0.443; for C35A G68C it is 0.345. Take C35A G68U: the self-cleavage is 0.394. In the case of C35A A60C, the self-cleavage came to 0.193. For the variant C35A A60G, the self-cleavage stood at 0.24. For C35G U49C, the self-cleavage stood at 0.513. The figure for C35U U44A is 0.889. The figure for C35U U44C is 0.919; for C35U U53A it is 0.833.

Consider C34U C45U, for which the self-cleavage is 1.03. The figure for C34U C45G is 0.992; for C35A U49A it is 0.303. For the variant C35A U49C, the self-cleavage was 0.342. On to C35A U49G, for which the self-cleavage was determined as 0.26. The figure for C34U C63G is 0.78.

As to C35U U62G, the self-cleavage was 0.804.

In the case of C35U U62A, the self-cleavage came out at 0.813. With C35A A52G, the self-cleavage was found to be 0.247. Regarding C35A A52C, the self-cleavage is 0.316.

Consider C34U G68C, for which the self-cleavage came out at 0.962. The figure for C34U G68A is 1.01. On to C34G G68C, for which the self-cleavage came to 0.842.

As for C34G G68U, the self-cleavage is 0.929. For C35U A59U, the self-cleavage is 0.564.

For the variant C35U A59C, the self-cleavage turned out to be 0.41.

As to C35U A59G, the self-cleavage was found to be 0.999.

Take C34U U64C: the self-cleavage stood at 0.971. The figure for C34U U64G is 0.928. For C35A A51G, the self-cleavage amounted to 0.234. As for C35A A51C, the self-cleavage came to 0.255.

Consider C35U C54A, for which the self-cleavage amounted to 0.744. C35G A60C: the self-cleavage is 0.348. Then C35G A60U, with 0.217.

For C35G A60G, the self-cleavage turned out to be 0.239. The figure for C35G G37A is 0.219. Then C35G G37C, with 0.206. The figure for C35G G37U is 0.257; for C35G G65U it is 0.223; for C34G U61C it is 0.423. Consider C34G U64A, for which the self-cleavage came to 0.384. On to C34G U64G, for which the self-cleavage was 0.35. Regarding C34G U64C, the self-cleavage came out at 0.402. Consider C35G A52C, for which the self-cleavage turned out to be 0.433. The figure for C35G A52U is 0.474. Then C35U U55G, with 0.653. For C35U U55C, the self-cleavage stood at 0.699. The figure for C34U U46A is 1; for C34U U46C it is 0.977. The figure for C34U U46G is 0.988; for C35A U36C it is 0.245; for C35A U36G it is 0.232.

On to C34G G56A, for which the self-cleavage is 0.579.

For C34G G56U, the self-cleavage was determined as 0.538. For C35A G65A, the self-cleavage is 0.299.

Regarding C35A G65U, the self-cleavage was 0.184.

Consider C35A G50U, for which the self-cleavage worked out at 0.287. Then C35G A40C, with 0.225.

Consider C35G A40G, for which the self-cleavage stood at 0.394. The figure for C35G A40U is 0.261; for C34U U55A it is 0.925. The figure for C34U U55G is 0.84. The figure for C35A G56U is 0.223. On to C35A G56A, for which the self-cleavage turned out to be 0.218. Then C35A G56C, with 0.253. On to U36A C39A, for which the self-cleavage is 0.233. Take C35U A42G: the self-cleavage turned out to be 0.943.

The record behind these values is the RNAGym collection of RNA variant scans (doi:10.7554/elife.80360).
